According to PMC8523820:

How the values were obtained:
[1] = target: mouse ASIC1a channel (mouse (endogenous in C57BL/6 striatal neurons)) (UniProt Q6NXK8)
[2] = target: eGFP-ASIC1a (rat ASIC1a subunit fused to eGFP) (rat) (UniProt P55926)
[3] = target: human ASIC1a channel (human (endogenous in HEK293)) (UniProt P78348)
[4] = target: eGFP-ASIC1a (rat ASIC1a subunit fused to eGFP) (rat) (UniProt P55926); remark: listed apart in the source
[5] = target: mouse ASIC1a channel (mouse (endogenous in C57BL/6 striatal neurons)) (UniProt Q6NXK8); remark: listed apart in the source
[6] = target: human ASIC1a channel (human (endogenous in HEK293)) (UniProt P78348); remark: listed apart in the source

UniProt P78348, sequence (P78348 whole entry, the tested form may be a part): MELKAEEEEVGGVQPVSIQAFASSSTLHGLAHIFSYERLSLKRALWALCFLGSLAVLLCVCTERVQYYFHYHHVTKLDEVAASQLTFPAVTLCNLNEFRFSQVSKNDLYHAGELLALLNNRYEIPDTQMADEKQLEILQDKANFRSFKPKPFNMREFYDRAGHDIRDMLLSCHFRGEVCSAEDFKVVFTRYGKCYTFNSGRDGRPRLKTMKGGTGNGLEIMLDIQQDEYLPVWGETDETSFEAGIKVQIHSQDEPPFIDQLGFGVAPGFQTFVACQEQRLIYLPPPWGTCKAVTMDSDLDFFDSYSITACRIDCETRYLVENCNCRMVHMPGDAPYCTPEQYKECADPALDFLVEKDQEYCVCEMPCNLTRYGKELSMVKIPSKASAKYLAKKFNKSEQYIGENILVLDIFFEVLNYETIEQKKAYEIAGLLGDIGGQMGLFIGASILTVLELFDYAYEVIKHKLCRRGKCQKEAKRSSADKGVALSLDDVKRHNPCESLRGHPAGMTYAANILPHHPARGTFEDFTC
UniProt P55926, sequence (P55926 whole entry, the tested form may be a part): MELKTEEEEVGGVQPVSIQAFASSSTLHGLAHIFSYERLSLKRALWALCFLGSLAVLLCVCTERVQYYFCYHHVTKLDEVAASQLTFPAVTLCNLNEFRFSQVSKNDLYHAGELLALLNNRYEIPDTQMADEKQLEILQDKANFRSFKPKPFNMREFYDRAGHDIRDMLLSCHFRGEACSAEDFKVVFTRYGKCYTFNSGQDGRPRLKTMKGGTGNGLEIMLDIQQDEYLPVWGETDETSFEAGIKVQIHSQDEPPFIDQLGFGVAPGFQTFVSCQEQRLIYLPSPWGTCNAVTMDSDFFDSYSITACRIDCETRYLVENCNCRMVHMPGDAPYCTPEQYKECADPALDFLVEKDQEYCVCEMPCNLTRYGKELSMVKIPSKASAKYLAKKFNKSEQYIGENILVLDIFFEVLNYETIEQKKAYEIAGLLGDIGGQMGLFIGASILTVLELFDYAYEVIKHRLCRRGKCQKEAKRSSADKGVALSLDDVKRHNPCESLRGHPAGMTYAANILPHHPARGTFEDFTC
UniProt Q6NXK8, sequence (Q6NXK8 whole entry, the tested form may be a part): as the sequence (P55926 whole entry, the tested form may be a part) above, with S476N counted along it

## MitTx (complex)
[1]
  pCaMKII/Tub relative to control, Western blot of lysates of mouse striatal neurons treated with 20 nM MitTx for 2 min (fold of control): 6.37
[2]
  pERK/tERK relative to untreated eASICx1 cells, HEK cells transfected with eGFP-ASIC1a (x1), pre-incubated with Pctx-1, then MitTx (fold of eASICx1 levels): 1.1
[3]
  pERK/tERK relative to control, Western blot of lysates of HEK cells treated with 20 nM MitTx for 2 to 10 min (7.98 at 2 min, 10.90 at 10 min) (fold of control): 10.9
[4]
  pERK/tERK relative to untreated eASICx1 cells, Western blot of HEK cells transfected with eGFP-ASIC1a (x1) and treated with MitTx (fold of eASICx1 levels): 3.42
  pERK/tERK relative to untreated eASICx1 cells, Western blot of HEK cells transfected with eGFP-ASIC1a (x3) and treated with MitTx (fold of eASICx1 levels): 9.96
[5]
  pERK/tERK relative to control, Western blot of lysates of mouse striatal neurons treated with 20 nM MitTx for 2 min (fold of control): 5.39
[6]
  pCaMKII/Tub relative to control, HEK cells pre-incubated with 20 nM Pctx-1 for 30 min, then MitTx for 2 min (fold of control): 1.17
  pCaMKII/Tub relative to control, Western blot of lysates of HEK cells treated with 20 nM MitTx for 2 to 10 min (8.88 at 2 min, 10.76 at 10 min) (fold of control): 10.8
  pERK/tERK relative to control, HEK cells pre-incubated with 20 nM Pctx-1 for 30 min, then MitTx for 2 to 10 min (1.18 at 2 min, 1.42 at 10 min) (fold of control): 1.42
